Series [1] concerns human melanoma culture cell line G-361. The series is described as follows: Reactivity with human cancer cell (immunofluorescent method). The format is binding. Particulars: antibody 5 μg/ml; FIG. 23. The procedure:
(§1) Reactivity of purified anti-GD3 CDR-grafted antibodies KM8869, KM8870 and KM8871 with human cancer cells was measured as follows. That is, 1×10^6 cells of each of human melanoma culture cell lines G-361 (ATCC CRL 1424) and SK-MEL-28 (ATCC HTB72) were suspended in PBS, put into microtubes and centrifuged (2,000 rpm for 2 minutes), and the thus washed cells were stirred after adding 50 μl of the anti-GD3 chimeric antibody KM871 or the anti-GD3 CDR-grafted antibody, KM8869, KM8870 or KM8871 (a solution adjusted to 5 μg/ml with 1% BSA-PBS) and then allowed to react at 4° C. for 1 hour. After the reaction, followed by centrifugation three times with PBS for washing, 20 μl of rabbit anti-human IgG (H+L) F(ab′)2 solution (manufactured by Wako Pure chemical Industries, used by diluting 30 folds with 1% BSA-PBS) fluorescence-labeled with fluorescein isothiocyanate (hereinafter referred to as “FITC”) was added thereto, followed by stirring, and then the reaction was carried out at 4° C. for 1 hour. After the reaction, followed by centrifugation three times with PBS for washing, the cells were again suspended in PBS to carry out the analysis using a flow cytometer EPICS Elite (manufactured by COULTER). As a control, the analysis was carried out by the same procedure without adding antibodies.

The subject of series [2] is human melanoma culture cell line SK-MEL-28. Described as above. Conditions: antibody 5 μg/ml; FIG. 23. It is filed as binding. The protocol:
as §1

The test system of series [3] is human melanoma culture cell line G-361. The series is described as follows: In vitro cytotoxic activity (CDC activity), 51Cr release. The format is cell-based. Particulars: antibody 0.05 to 50 μg/ml, human complement; FIG. 24. The procedure: (§2) Each of human melanoma culture cell lines, G-361 (ATCC CRL 1424) and SK-MEL-28 (ATCC HTB72), was cultured in RPMI1640-FBS(10) medium and adjusted to 5×10^6 cells, and the cells were isotope-labeled by adding 3.7 MBq equivalent of a radioactive substance Na2^51CrO4 and carrying out the reaction at 37° C. for 1 hour. After the reaction, the cells were washed three times by their suspension in RPMI1640-FBS(10) medium and centrifugation, re-suspended in the medium and then incubated in ice at 4° C. for 30 minutes to thereby spontaneously release the radioactive substance. […]
(§3) To each well of a 96 well U bottom plate (manufactured by Falcon), 50 μl of the target cell suspension prepared in “a.” was added (5×10^4 cells/well), and then the anti-GD3 chimeric antibody KM871 or the anti-GD3 CDR-grafted antibody, KM8869, KM8870 or KM8871, was added to give a final concentration of 0.05 to 50 μg/ml and allowed to react at room temperature for 30 minutes. […] After centrifugation, the amount of ^51Cr released in the supernatant was measured by a γ-counter. The amount of the spontaneously dissociated ^51Cr was calculated by carrying out the same procedure using the medium alone instead of the antibody solution and complement solution and measuring the amount of ^51Cr in the supernatant. […] The CDC activity was calculated by the following equation.

In series [4] the test system is human melanoma culture cell line SK-MEL-28. Described as above. It is filed as cell-based. Particulars: antibody 0.05 to 50 μg/ml, human complement; FIG. 24. The protocol: as §2, §3
For series [5], the system named is human melanoma culture cell line G-361. Description: In vitro cytotoxic activity (ADCC activity), 51Cr release. The format is cell-based. Conditions: FIG. 25. The procedure:
(§4) Each of human melanoma culture cell lines, G-361 (ATCC CRL 1424) and SK-MEL-28 (ATCC HTB72), was cultured in RPMI1640-FBS(10) medium and adjusted to 1×10^6 cells, and the cells were isotope-labeled by adding 1.85 MBq equivalent of a radioactive substance Na2^51CrO4 and carrying out the reaction at 37° C. for 1 hour. After the reaction, the cells were washed three times by their suspension in RPMI1640-FBS(10) medium and centrifugation, re-suspended in the medium and then incubated in ice at 4° C. for 30 minutes to thereby spontaneously release the radioactive substance. After centrifugation, the cells were adjusted to 2×10^5 cells/ml by adding 5 ml of RPMI1640-FBS(10) medium and used as the target cell suspension.
(§5) Healthy human vein blood (50 ml) was collected, and 0.5 ml of heparin sodium (manufactured by Takeda Pharmaceutical) was gently added thereto. The resulting mixture was centrifuged (1,500 to 1,800×g for 30 minutes) using Polymorphprep (manufactured by Nycomed Pharma AS) in accordance with the manufacturers instructions to separate a mononuclear cell layer. […]
(§6) Into each well of a 96 well U bottom plate (manufactured by Falcon), 50 μl of the target cell suspension prepared in “a.” was dispensed (1×10^4 cells/well). […] After the reaction, the plate was centrifuged and the amount of ^51Cr in the supernatant was measured by a γ-counter. The amount of the spontaneously dissociated ^51Cr was calculated by carrying out the same procedure using the medium alone instead of the effector cell suspension and antibody solution and measuring the amount of ^51Cr in the supernatant. The amount of the total dissociated ^51Cr was calculated by carrying out the same procedure by adding the medium alone instead of the antibody solution, and 5 N sodium hydroxide instead of the effector cell suspension, and measuring the amount of ^51Cr in the supernatant. The ADCC activity was calculated by the following equation.

Series [6] has as its system human melanoma culture cell line SK-MEL-28. The series is described as above. It is filed as cell-based. Particulars: antibody 0.05 to 50 μg/ml, effector:target 50:1; FIG. 25. The protocol: as §4, §5, §6

B1: KM871: anti-GD3 human chimeric antibody; VH SEQ ID NO:49, VL SEQ ID NO:50, human IgG1 and κ C regions (antibody, listed as Mus musculus, V domains shown)
VH: EVTLVESGGDFVKPGGSLKVSCAASGFAFSHYAMSWVRQTPAKRLEWVAYISSGGSGTYYSDSVKGRFTISRDNAKNTLYLQMRSLRSEDSAMYFCTRVKLGTYYFDSWGQGTTLTVSS
VL: DIQMTQTASSLPASLGDRVTISCSASQDISNYLNWYQQKPDGTVKLLIFYSSNLHSGVPSRFSGGGSGTDYSLTISNLEPEDIATYFCHQYSKLPWTFGGGTKLEIKR
modifications: human IgG1 and kappa constant regions
On to B1, for which the reactivity with cells result in series [1] and in series [2] was “showed the reactivity” each time. For the same molecule, the CDC activity entry in series [3] is given as “remarkably strong cytotoxic activity”; in series [4], “show the CDC activity”. For the same molecule, in series [5] (G-361 and SK-MEL-28), the “difference in ADCC cytotoxic activity among KM871, KM8869, KM8870 and KM8871” value was “difference in the cytotoxic activity was not found”. Further, the ADCC activity entry in series [5] (antibody 0.05 to 50 μg/ml, effector:target 50:1) is recorded as “strong ADCC activity”; in series [6], “strong ADCC activity”.
